From patent US20250235516A1 (UNIVERSITY OF SOUTH FLORIDA, published 2025)

T1: neutrophil elastase (human, UniProt P08246 30-247, limits assumed)
T1 sequence (looked up): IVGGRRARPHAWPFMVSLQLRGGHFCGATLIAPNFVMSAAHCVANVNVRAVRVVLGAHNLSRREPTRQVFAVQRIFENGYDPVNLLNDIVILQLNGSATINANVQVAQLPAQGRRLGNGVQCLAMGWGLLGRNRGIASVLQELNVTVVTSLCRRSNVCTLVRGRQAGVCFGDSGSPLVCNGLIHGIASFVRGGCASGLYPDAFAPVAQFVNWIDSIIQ


What was measured:
neutrophil elastase = molecular target: T1, neutrophil elastase; assay: cell-based or functional assay
[1] = molecular target: Matrix metalloproteinase-2 (UniProt P08253 110-465, limits assumed); assay: cell-based or functional assay
Sequence of Matrix metalloproteinase-2 (P08253 110-465 limits assumed): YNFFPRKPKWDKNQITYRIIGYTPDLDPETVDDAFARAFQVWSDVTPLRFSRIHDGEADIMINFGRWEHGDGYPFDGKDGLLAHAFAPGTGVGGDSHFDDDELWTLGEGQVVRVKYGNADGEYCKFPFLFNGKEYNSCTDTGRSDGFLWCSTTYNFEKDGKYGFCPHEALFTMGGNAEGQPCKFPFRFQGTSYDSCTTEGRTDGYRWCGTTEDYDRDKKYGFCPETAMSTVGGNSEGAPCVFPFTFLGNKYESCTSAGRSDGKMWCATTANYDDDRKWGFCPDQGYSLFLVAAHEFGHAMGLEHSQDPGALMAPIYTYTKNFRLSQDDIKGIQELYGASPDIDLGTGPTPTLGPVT

IC50 of NE inhibition (kinetic colorimetric substrate assay) (neutrophil elastase) [µg/mL]	IC50 of MMP-2 inhibition (kinetic colorimetric substrate assay) [1] [µg/mL]	% inhibition of NE near the IC50 of the dual inhibitor (neutrophil elastase) [%]	Binder
0.00085	40	–	PMPD2-L10FLAG-APP-IP (designed binder) EEKCTPGQVKQQDCNTCTCTPTGVWGCTLMGCQPAVPGVGVPGVGVPGLGVPGVGVPGVGVPGVGVPGVGVPGLGVPGVGVPGVGVPGVGVPGVGVPGLGVPGVGVPGVGVPGVGVPGVGVPGLGVPGVGVPGVGVPGVGVPGVGVPGLGVPGVGVPGVGVPGVGVPGVGVPGLGVPGVGVPGVGVPGVGVPGVGVPGLGVPGVGVPGVGVPGVGVPGVGVPGLGVPGVGVPGVGVPGVGVPGVGVPGLGVPGVGVPGVGVPGVGVPGVGVPGLGVPGVGVPGVGDYKDDDDKISYGNDALMP
–	50	8.4	APP-IP-L10FLAG (designed binder) ISYGNDALMPVPGVGVPGVGVPGLGVPGVGVPGVGVPGVGVPGVGVPGLGVPGVGVPGVGVPGVGVPGVGVPGLGVPGVGVPGVGVPGVGVPGVGVPGLGVPGVGVPGVGVPGVGVPGVGVPGLGVPGVGVPGVGVPGVGVPGVGVPGLGVPGVGVPGVGVPGVGVPGVGVPGLGVPGVGVPGVGVPGVGVPGVGVPGLGVPGVGVPGVGVPGVGVPGVGVPGLGVPGVGVPGVGVPGVGVPGVGVPGLGVPGVGVPGVGDYKDDDDK
0.00708	–	–	PMPD2-L10FLAG (designed binder) EEKCTPGQVKQQDCNTCTCTPTGVWGCTLMGCQPAVPGVGVPGVGVPGLGVPGVGVPGVGVPGVGVPGVGVPGLGVPGVGVPGVGVPGVGVPGVGVPGLGVPGVGVPGVGVPGVGVPGVGVPGLGVPGVGVPGVGVPGVGVPGVGVPGLGVPGVGVPGVGVPGVGVPGVGVPGLGVPGVGVPGVGVPGVGVPGVGVPGLGVPGVGVPGVGVPGVGVPGVGVPGLGVPGVGVPGVGVPGVGVPGVGVPGLGVPGVGVPGVGVPGVGVPGVGVPGLGVPGVGVPGVGDYKDDDDK
